Experimental data from patent US20030157533A1, “Nucleic acid labeling by Thermoanaerobacter thermohydrosulfuricus DNA polymerase I variants” (priority 2001, published 2003).

Columns and labels:
Assay type in all cases: biochemical
[1] = test system: Globin mRNA template annealed to P-33 labeled primer; assay: Single nucleotide incorporation of Cy3.5-dCTP or dCTP on RNA template (reverse transcriptase reaction, FIG. 7); settings: lower concentrations (0.2 uM or lower) of dye-CTP
Method: The experiment shown in FIG. 7 investigates the relative efficiencies of incorporation of dye-CTP (Cy3.5-dCTP) and dCTP. Three enzyme preparations ΔTts, ΔTts F412Y, ΔTtsF412YD426R were analyzed in this experiment.
(§1) Optimized 1×buffer compositions for Reverse Transcriptase (RNA dependent DNA Polymerase) and DNA Polymerase (DNA dependent DNA polymerase) reactions for all variants of Tts Pol I are as follows. Tris, pH 8.0 (50 mM), KCl (40 mM), MgCl2 (3 mM), DTT (1 mM), DNA or RNA template (as needed), primer (5 to 50 femto mols), enzyme 0.5 to 1 units, dNTP or dNTP analog (varying concentrations as needed). In standard synthesis reactions, when full-length synthesis is monitored, 50 uM of all 4 dNTPs are included. Typical reaction volume is 10 ul. Reaction temperature was kept between 37-60 C. depending on the experimental needs. Reaction time was limited to 10 minutes for single nucleotide incorporation studies. Time was varied as needed for the purpose of the experiments, sometimes up to 1 hour if longer extensions are monitored.
The experiment shown in FIG. 7 investigates the relative efficiencies of incorporation of dye-CTP (Cy3.5-dCTP) and dCTP. Three enzyme preparations ΔTts, ΔTtsFY, ΔTtsF412YD426R were analyzed in this experiment.
In FIG. 7, Globin mRNA served as the template. A 5′ P-33 labeled primer (DNA 25-mer) was annealed to the template. Reactions were performed with varying concentrations of either Cy3.5-dCTP or dCTP alone. Inclusion of only one dNTP allowed incorporation of the next correct nucleotide alone. The sequence of the template-primer that allowed for the examination of single nucleotide “C” incorporation is shown below.
Lanes 1,2,3 and 4 contain 20, 2, 0.2, and 0.02 uM of dNTP or dye-dNTP. Lane with no label has no enzyme, to show the integrity of the starting P-33 labeled primer. Quantification of the single nucleotide extension product is one way to tell if DR change to in the enzyme led to any consequence. “P” indicates a radio labeled primer. “P+1” represents the elongated product by a single nucleotide or nucleotide analog. P+1 migrates slowly with the dye-dNTP conjugate. Note that the migration of Cy3.5 dCMP containing bands travel slowly on the gel compared to dCTP extended products. […] Essentially, incorporation is achieved at lower concentrations (less than 10 times) of dye-dNTP compared to that of the wild type polymerase. It is evident that the DR enzyme was able to incorporate Cy3.5 dCTP at concentrations as low as 0.2 uM (Cy3.5 dCTP) or even lower. […] In this experiment the template-primer is a mRNA annealed to radio labeled primer. Extension is monitored qualitatively as P+1 for the natural nucleotides and P+1* for dye labeled nucleotide. This is a promising first observation for potential use in microarray applications for cDNA probe labeling.

[2] = test system: defined DNA template-DNA primer; assay: Single nucleotide incorporation of dye-dCTP during DNA dependent DNA synthesis (FIG. 13); settings: lower concentrations (0.2 uM or lower) of dye-dCTP
Method: as §1
Primer extension was monitored using a defined DNA template-DNA primer.
In this experiment the relative efficiencies of incorporation of dye-CTP (Cy3.5-dCTP) was investigated. Three enzyme preparations were tested ΔTts, ΔTtsF412Y, and ΔTtsF412YD426R
Defined DNA shown below served as the template. A P-33 labeled primer (DNA 25 mer) was annealed to the template. Reactions were performed with varying concentrations of either Cy3.5-dCTP or dCTP alone. Inclusion of only one dNTP allowed incorporation of the next correct nucleotide alone. The sequence of the template-primer that allowed for the examination of single nucleotide “C” incorporation is shown below.
Lanes 1, 2, 3, 4 and 5 contain 20, 2, 0.2, 0.02 and 0 uM dye-dCTP. Lane 5 has no enzyme, to show the integrity of the starting p-33 labeled primer. Quantification of the single nucleotide extension product is one way to tell if DR change in the enzyme led to any consequence. “P” indicates a radio labeled primer. “P+1” represents the elongated product by a single nucleotide or nucleotide analog. P+1 migrates slowly with the dye-dNTP conjugate. Note that the migration of Cy3.5-dCTP containing band travel slowly on the gel compared to dCMP extended products. […] P+1 product is achieved between 10-100 fold less concentration of dye-dCTP with the enzyme having the DR change. Essentially, incorporation is achieved at a much lower concentration of dye-dNMP compared to the wild type enzyme. It is evident that the DR enzyme was able to incorporate Cy3.5-dCTP at concentrations as low as 0.2 uM or even lower.

Globin mRNA = assay: Direct RNA sequencing (FIG. 8); settings: compared to retroviral reverse transcriptases
Source text: Globin mRNA served as a template. The 50-mer DNA was used a primer. Standard sequencing components in Amersham Pharmacia Thermo Sequenase kit were employed for sequencing. P-33 labeled terminators (ddNTP) were obtained from Amersham Pharmacia Biotech. Post-sequencing reaction products were separated on 6% urea-polyacrylamide gels. AMV, Avian Myeloblastosis virus RT.

Molecule | incorporation of Cy3.5-dCTP (qualitative, P+1 band) [1] | incorporation of Cy3.5-dCTP (qualitative, P+1 band) [2] | quality of sequence information from short stretches of RNA (Globin mRNA)
D enzyme: 5′-3′ exonuclease deficient amino-terminally truncated Tts DNA polymerase I with unaltered aspartate at 426 (SEQ ID No. 3) (protein, listed as Thermoanaerobacter thermohydrosulfuricus) MYKFLIIDGSSLMYRAYYALPMLTTSEGLPTNALYGFTMMLIKLIEEEKPDYIAIAFDKKAPTFRHKEYQDYKATRQAMPEELAEQVDYLKEIIDGFNIKTLELEGYEADDIIGTISKLAEEKGMEVLVVTGDRDALQLVSDKVKIKISKKGITQMEEFDEKAILERYGITPQQFIDLKGLMGDKSDNIPGVPNIGEKTAIKLLKDFGTIENLIQNLSQLKGKIKENIENNKELAIMSKRLATIKRDIPIEIDFEEYKVKKFNEEKLLELFNKLEFFSLIDNIKKESSIEIVDNHKVEKWSKVDIKELVTLLQDNRNIAFYPLIYEGEIKKIAFSFGKDTVYIDVFQTEDLKEIFEKEDFEFTTHEIKDFLVRLSYKGIECKSKYIDTAVMAYLLNPSESNYDLDRVLKKYLKVDVPSYEGIFGKGRDKKKIEEIDENILADYICSRCVYLFDLKEKLMNFIEEMDMKKLLLEIEMPLVEVLKSMEVSGFTLDKEVLKELSQKIDDRIGEILDKIYKEAGYQFNVNSPKQLSEFLFEKLNLPVIKKTKTGYSTDSEVLEQLVPYNDIVSDIIEYRQLTKLKSTYIDGFLPLMDENNRVHSNFKQMVTATGRISSTEPNLQNIPIREEFGRQIRRAFIPRSRDGYIVSADYSQIELRVLAHVSGDEKLIESFMNNEDIHLRTASEVFKVPMEKVTPEMRRAAKAVNFGIIYGISDYGLSRDLKISRKEAKEYINNYFERYKGVKDYIEKIVRFAKENGYVTTIMNRRRYIPEINSRNFTQRSQAERLAMNAPIQGSAADIIKMAMVKVYNDLKKLKLKSKLILQVHDELVVDTYKDEVDIIKKILKENMENVVQLKVPLVVEIGVGPNWFLAK | relatively poor incorporation | relatively poor incorporation | 
Tts F412Y: exonuclease deficient truncated Tts DNA polymerase I with F to Y change at position 412 (SEQ ID No. 5) (protein, listed as Thermoanaerobacter thermohydrosulfuricus) MYKFLIIDGSSLMYRAYYALPMLTTSEGLPTNALYGFTMMLIKLIEEEKPDYIAIAFDKKAPTFRHKEYQDYKATRQAMPEELAEQVDYLKEIIDGFNIKTLELEGYEADDIIGTISKLAEEKGMEVLVVTGDRDALQLVSDKVKIKISKKGITQMEEFDEKAILERYGITPQQFIDLKGLMGDKSDNIPGVPNIGEKTAIKLLKDFGTIENLIQNLSQLKGKIKENIENNKELAIMSKRLATIKRDIPIEIDFEEYKVKKFNEEKLLELFNKLEFFSLIDNIKKESSIEIVDNHKVEKWSKVDIKELVTLLQDNRNIAFYPLIYEGEIKKIAFSFGKDTVYIDVFQTEDLKEIFEKEDFEFTTHEIKDFLVRLSYKGIECKSKYIDTAVMAYLLNPSESNYDLDRVLKKYLKVDVPSYEGIFGKGRDKKKIEEIDENILADYICSRCVYLFDLKEKLMNFIEEMDMKKLLLEIEMPLVEVLKSMEVSGFTLDKEVLKELSQKIDDRIGEILDKIYKEAGYQFNVNSPKQLSEFLFEKLNLPVIKKTKTGYSTDSEVLEQLVPYNDIVSDIIEYRQLTKLKSTYIDGFLPLMDENNRVHSNFKQMVTATGRISSTEPNLQNIPIREEFGRQIRRAFIPRSRDGYIVSADYSQIELRVLAHVSGDEKLIESFMNNEDIHLRTASEVFKVPMEKVTPEMRRAAKAVNYGIIYGISDYGLSRDLKISRKEAKEYINNYFERYKGVKDYIEKIVRFAKENGYVTTIMNRRRYIPEINSRNFTQRSQAERLAMNAPIQGSAADIIKMAMVKVYNDLKKLKLKSKLILQVHDELVVDTYKDEVDIIKKILKENMENVVQLKVPLVVEIGVGPNWFLAK | decreased incorporation | decreased incorporation | excellent sequence information
